Source: EP4786489A1, “IL-22 MUTANT, PREPARATION METHOD THEREFOR, AND USE THEREOF” (Nanjing Novoacine Biotechnology Co., Ltd., priority 2023, dated 2025)

How the values were obtained:
Reg3β = experiment: Mouse PD: plasma Reg3β after single administration (ELISA); assay type: in vivo; set-up: Reg3βCmax: unit not given here; conditions: for Reg3βCmax: mouse plasma, wt IL-22 i.p.
Protocol: The ELISA method was used to determine the baseline levels and post-dose changes of the biomarker Reg3β in plasma samples before and after administration of different test candidates.
For the preferable test candidates, one mouse per dose group was subcutaneously injected at 0.5, 1, or 3 mg/kg. The control molecules were IL-22-Fc, administered subcutaneously at 0.3 and 1 mg/kg, and wt IL-22, administered intraperitoneally at the corresponding doses.
Approximately 40 µL of orbital blood was collected with anticoagulation on the day before dosing and at 4, 24, 48, 96, 144, 192, 264, 336, and 408 hours after dosing, followed by plasma separation. ELISA plates were coated overnight at 4°C with 1 µg/mL anti-Reg3β (Sino Biological, 51153-R065) dissolved in PBS. Mouse Reg3β (Sino Biological, 51153-M08H) was serially diluted to generate a positive control standard curve. Plasma samples were appropriately diluted to fall within the linear range of the standard curve. After blocking, samples were added and incubated for 2 hours. Incubation was then performed with the secondary antibody sheep anti-mouse Reg3β (R&D Systems, AF5110-SP) and HRP-conjugated antibody (HRP-Rabbit anti-sheep IgG H&L, Abcam, Ab97130). After final washing, tetramethylbenzidine peroxidase substrate (TMB, Surmodics, TMBS-1000-01) was added for color development for 10 minutes. The reaction was terminated with 2 M sulfuric acid, and absorbance was read at 450 nm with 630 nm as reference using a microplate reader. The original concentrations of Reg3β in each sample were calculated. Concentration versus time curves were plotted (Figure 9).

[1] = Mouse PK, plasma concentration by ELISA; assay type: in vivo; conditions: single s.c. 1 mg/kg, male Balb/C mice
Protocol: Male Balb/C mice (n = 4 per group) were administered a single subcutaneous injection at a dose of 1 mg/kg. Blood samples were collected before dosing and at 4 (no samples were collected at this time point for 60k-PEG-IL22-D109C and 60k-PEG-IL22-P120C), 8, 24, […], 48, 72, 96, and 120 hours after dosing. Anticoagulated blood was used to prepare plasma.
The concentrations of each test candidate in plasma were quantified by ELISA. Anti-IL22 Antibody (Sino Biological, 13059-MM24), diluted in PBS to 2 µg/mL, was used for coating. Standard curves of each test candidate and plasma samples were diluted to fall within the linear range of detection. Recombinant Anti-IL22 Antibody (Sino Biological, 13059-R034-H) was used for detection. The original concentration of each test candidate in the samples was calculated using a four-parameter fit of the standard curve for each test candidate. Pharmacokinetic parameters of each test candidate in mouse plasma were analyzed (Figure 12). Table 13. Dosing information for the mouse PK study

STAT3 = STAT3 phosphorylation in HaCaT cells by FACS (tissue activation preference); assay type: cell-based, Human; conditions: STAT3 activation in HT29 vs HaCaT cells
Protocol: Human immortalized keratinocyte HaCaT cells were recovered and cultured in MEM/EBSS medium (Cytiva, SH30024.01) supplemented with 15% FBS and 1% P/S (Cytiva, SV30010). When cell confluence reached 70%-80%, cells were digested with 0.25% Trypsin-EDTA (Gibco, 25200-056), terminated with complete medium, and resuspended to […]. After mixed thoroughly, a total of 120 µL per well cells was seeded into a 96-well plate (Corning, 3599) at a density of 1.5 × 10^5 cells per well and incubated overnight at 37°C with 5% CO2.
wt IL-22 was prepared at an initial working concentration of 1000 nM, and the remaining samples were prepared at 10000 nM as the starting concentration. […] After staining at room temperature in the dark for 1 hour, cells were washed twice with 1× PBS and analyzed by flow cytometry to determine the mean fluorescence intensity (MFI).
Tissue activation preference of different test candidates was evaluated by comparing their ability to activate STAT3 in intestinal-derived HT29 cells and skin-derived HaCaT cells. […] The activity of PEGylated IL-22 mutants in activating STAT3 phosphorylation in HaCaT cells at different concentrations as determined by FACS is shown in Figure 8. […] Tissue preference of PEG-IL22 mutants for STAT3 phosphorylation in human intestinal and human skin cell lines determined by FACS

SAA = experiment: Mouse PD preference study: plasma SAA; assay type: in vivo, mice; conditions: at equivalent or superior Reg3β Cmax: 60K-PEG-IL22-D109C 0.1 mg/kg vs 60K-PEG-IL22-P120C 0.3 mg/kg vs IL-22-Fc 1 mg/kg, s.c.
Protocol: Based on the in vitro preference results and preliminary PD screening results, the molecules 60k-PEG-IL22-D109C and 60k-PEG-IL22-P120C were selected. PD testing was performed in three mice per dose group at different dose levels according to the method described in Example 14, including the pharmacodynamic-related molecule Reg3β and the inflammation-related molecule SAA. The control was IL-22-Fc. Blood samples were collected before dosing and at 4, 24, 48, 72, 96, 144, 192, 264, and 336 hours after dosing. Plasma was separated using anticoagulated blood samples. For the control molecules wt IL-22 and hB3-his, samples were collected only up to 96 hours.
The detection method for SAA was as follows: a kit containing detecting antibody pairs and positive controls (Abcam, Ab216059) was used to detect SAA concentrations in appropriately diluted plasma samples. The assay was performed according to the manufacturer's instructions. Sa-HRP (Pierce 21126) was used for conjugation. After washing, tetramethylbenzidine peroxidase substrate (TMB, Surmodics, TMBS-1000-01) was added for color development for 10 minutes. The reaction was terminated with 2 M sulfuric acid, and the plate was read at 450 nm with 630 nm as the reference using a microplate reader. SAA was measured before dosing and at 24, 48, 72, 96, and 144 hours after dosing. The original SAA concentration in each sample was calculated. […]

B1: 60K-PEG-IL22-D109C: IL-22 cysteine mutant, conjugation site 76, PEG-maleimide 60kD (conjugate)
chain: APISSHCRLDKSNFQQPYITNRTFMLAKEASLADNNTDVRLIGEKLFHGVSMSERCYLMKQVLNFTLEEVLFPQSCRFQPYMQEVVPFLARLSNRLSTCHIEGDDLHIQRNVQKLKDTVKKLGESGEIKAIGELDLLFMSLRNACI
- Normalized Cmax ratio of Reg3β (relative to IL-22-Fc) (Reg3β; 0.5mg/kg single dose vs IL-22-Fc 0.3 mg/kg): 329%
- Reg3βCmax (Reg3β; 0.5mg/kg single dose, test candidates s.c., one mouse per dose group): 52.0
- Normalized Cmax ratio of Reg3β (relative to IL-22-Fc) (Reg3β; 1mg/kg single dose): 251%
- Reg3βCmax (Reg3β; 1mg/kg single dose, s.c.): 82.9
- Reg3βCmax (Reg3β; 3mg/kg single dose, s.c.): 73.4
- peak concentrations of Reg3β stimulation compared with IL-22-Fc (Reg3β; similar (0.5 mg/kg vs. 0.3 mg/kg) or identical (1 mg/kg) doses): higher peak concentrations
- AUClast [1]: 301.5835 µg·h/mL
- Cmax [1]: 5460.625 ng/mL
- MRT [1]: 41.39 h
- T1/2 [1]: 21.6 h
- tissue preference compared with IL-22-Fc (STAT3): superior tissue preference
- SAA Cmax compared with IL-22-Fc (SAA): significantly lower
